Assay results: article PMC5739299 (Molecular Biology of the Cell, 2017)

Biological target: T1, Alcadein α-FLAG, wild type, dephosphorylated with λPPase (human, UniProt O94985-2 29-971, dephosphorylated with λPPase on the beads)
T1 sequence (looked up): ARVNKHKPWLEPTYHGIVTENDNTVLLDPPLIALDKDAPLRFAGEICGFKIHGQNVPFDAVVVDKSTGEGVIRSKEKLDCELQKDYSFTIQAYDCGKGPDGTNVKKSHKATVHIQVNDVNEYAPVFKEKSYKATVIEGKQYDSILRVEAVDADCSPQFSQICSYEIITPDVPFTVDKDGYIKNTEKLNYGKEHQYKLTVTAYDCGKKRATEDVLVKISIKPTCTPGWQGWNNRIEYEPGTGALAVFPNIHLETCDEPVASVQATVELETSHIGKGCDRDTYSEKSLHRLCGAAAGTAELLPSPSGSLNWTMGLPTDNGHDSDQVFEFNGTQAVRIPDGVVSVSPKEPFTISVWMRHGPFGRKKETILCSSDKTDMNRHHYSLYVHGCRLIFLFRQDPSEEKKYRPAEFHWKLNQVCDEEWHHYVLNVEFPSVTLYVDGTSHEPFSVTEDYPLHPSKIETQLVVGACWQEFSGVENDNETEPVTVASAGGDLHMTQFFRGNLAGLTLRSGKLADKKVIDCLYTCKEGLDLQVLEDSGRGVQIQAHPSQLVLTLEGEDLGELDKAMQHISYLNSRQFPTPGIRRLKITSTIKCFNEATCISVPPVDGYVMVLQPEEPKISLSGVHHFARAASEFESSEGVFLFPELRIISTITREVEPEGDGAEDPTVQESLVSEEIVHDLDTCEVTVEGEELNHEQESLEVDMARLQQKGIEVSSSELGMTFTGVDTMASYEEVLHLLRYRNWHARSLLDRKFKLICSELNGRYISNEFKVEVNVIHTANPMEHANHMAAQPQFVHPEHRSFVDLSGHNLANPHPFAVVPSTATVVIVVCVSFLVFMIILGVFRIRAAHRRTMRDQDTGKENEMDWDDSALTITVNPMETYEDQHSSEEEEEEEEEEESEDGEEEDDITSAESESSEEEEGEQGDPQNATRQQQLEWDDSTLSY
Test: pull-down

B1: HA-KLC1 (kinesin light chain 1) (natural protein, UniProt O88447 1-541, looked up)
chain: MYDNMSTMVYIKEEKLENVTQDEIISKTKQVIQGLEALKNEHNSILQSLLETLKCLKKDDESNLVEEKSSMIRKSLEMLELGLSEAQVMMALSNHLNAVESEKQNVRAQVRRLCQENQWLRDELANTQQKLQKSEQSVAQLEEEKKHLEFMNQLKKYDDDISPSEDKDSDSSKEPLDDLFPNDEDEPGQGIQHSDSSAAAARQGYEIPARLRTLHNLVIQYASQGRYEVAVPSCKQALEDLEKTSGHDHPDVATMLNILALVYRDQNKYKDAANLLNDALAIREKTLGRDHPAVAATLNNLAVLYGKRGKYKEAEPLCKRALEIREKVLGKDHPDVAKQLNNLALLCQNQGKYEEVEYYYQRALGIYQTKLGPDRTPNVAKTKNNLASCYLKQGKFKQAETLYKEILTRAHEAEFGSVDDENKPIWMHAEEREECKGKQKDGSAFGEYGGWYKACKVDSPTVTTTLKNLGALYRRQGKFEAAETLEEAAMRSRKQGLDNVHKQRVAEVLNDPESMEKRRSRESLNMDVVKYESGPDGGEEA
- recovery of HA-KLC1 relative to Alcα-FLAG without λPPase treatment: ~20%
